Laboratory results: patent US20240425567A1

Legend:
[1] = molecular target: antigen of the binding ELISA (not given); experiment: binding ELISA relative to reference standard; 25 C upright, initial
[2] = molecular target: antigen of the binding ELISA (not given); experiment: binding ELISA relative to reference standard; 25 C inverted, 1 month
[3] = molecular target: antigen of the binding ELISA (not given); experiment: binding ELISA relative to reference standard; 40 C inverted, 1 month
[4] = molecular target: antigen of the binding ELISA (not given); experiment: binding ELISA relative to reference standard; 40 C inverted, initial
[5] = molecular target: antigen of the binding ELISA (not given); experiment: binding ELISA relative to reference standard; 25 C upright, 6 months
[6] = molecular target: antigen of the binding ELISA (not given); experiment: binding ELISA relative to reference standard; 25 C inverted, initial
[7] = molecular target: antigen of the binding ELISA (not given); experiment: binding ELISA relative to reference standard; 25 C inverted, 2 months
[8] = molecular target: antigen of the binding ELISA (not given); experiment: binding ELISA relative to reference standard; 25 C inverted, 3 months
[9] = molecular target: antigen of the binding ELISA (not given); experiment: binding ELISA relative to reference standard; 40 C inverted, 0.5 month
[10] = molecular target: antigen of the binding ELISA (not given); experiment: binding ELISA relative to reference standard; 25 C inverted, 0.5 month
[11] = molecular target: antigen of the binding ELISA (not given); experiment: binding ELISA relative to reference standard; 2 to 8 C upright, initial
[12] = molecular target: antigen of the binding ELISA (not given); experiment: binding ELISA relative to reference standard; 2 to 8 C inverted, 1 month
[13] = molecular target: antigen of the binding ELISA (not given); experiment: binding ELISA relative to reference standard; 2 to 8 C inverted, initial
[14] = molecular target: antigen of the binding ELISA (not given); experiment: binding ELISA relative to reference standard; 2 to 8 C inverted, 3 months
[15] = molecular target: antigen of the binding ELISA (not given); experiment: binding ELISA relative to reference standard; 2 to 8 C inverted, 6 months
[16] = molecular target: antigen of the binding ELISA (not given); experiment: binding ELISA relative to reference standard; 2 to 8 C inverted, 12 months

B1: ADI-58125 (antibody, human IgG1, lambda, V domains shown)
VH: EVQLVESGGGLVKPGGSLRLSCAASGFTFSSYYMNWVRQAPGKGLEWVSSISEDGYSTYYPDSLKGRFTISRDSAKNSLYLQMNSLRADDTAVYYCARDFSGHTAWAGTGFEYWGQGTLVTVSS
VL: QSVLTQPPSVSGAPGQRITISCTGSSSNIGAGYDVHWYQQLPGTAPKLLIYGSSSRNSGVPDRFSGSKSGTSASLAITGLQAEDEADYYCQSYDSSLSVLYTFGTGTKVTVLG
Binding ELISA, % of reference standard activity (% of reference standard activity) [1]: 114 | Binding ELISA, Reference Standard activity % (% of reference standard activity) [1]: 114 | Binding ELISA, % of reference standard activity (% of reference standard activity) [2]: 102 | Binding ELISA, Reference Standard activity % (% of reference standard activity) [2]: 102 | Binding ELISA, % of reference standard activity (% of reference standard activity) [3]: 94 | Binding ELISA, Reference Standard activity % (% of reference standard activity) [3]: 94 | Binding ELISA, % of reference standard activity (% of reference standard activity) [4]: 114 | Binding ELISA, Reference Standard activity % (% of reference standard activity) [4]: 114 | Binding ELISA, % of reference standard activity (% of reference standard activity) [5]: 91 | Binding ELISA, % of reference standard activity (% of reference standard activity) [6]: 114 | Binding ELISA, Reference Standard activity % (% of reference standard activity) [6]: 114 | Binding ELISA, % of reference standard activity (% of reference standard activity) [7]: 111 | Binding ELISA, Reference Standard activity % (% of reference standard activity) [7]: 111 | Binding ELISA, % of reference standard activity (% of reference standard activity) [8]: 94 | Binding ELISA, % of reference standard activity (% of reference standard activity) [9]: 99 | Binding ELISA, Reference Standard activity % (% of reference standard activity) [9]: 99 | Binding ELISA, % of reference standard activity (% of reference standard activity) [10]: 109 | Binding ELISA, Reference Standard activity % (% of reference standard activity) [10]: 109 | Binding ELISA, % of reference standard activity (% of reference standard activity) [11]: 114 | Binding ELISA, % of reference standard activity (% of reference standard activity) [12]: 101 | Binding ELISA, % of reference standard activity (% of reference standard activity) [13]: 114 | Binding ELISA, % of reference standard activity (% of reference standard activity) [14]: 111 | Binding ELISA, % of reference standard activity (% of reference standard activity) [15]: 108 | Binding ELISA, % of reference standard activity (% of reference standard activity) [16]: 93
